This is an account of results in publication PMC3569440, “Recombinant Production of Human Aquaporin-1 to an Exceptional High Membrane Density in Saccharomyces cerevisiae” (PLoS ONE, 2013).

Several values for one entry are separate records, joined by “and”; a condition that tells them apart may be missing. Equal values may be shown once.

The data set concerns the molecule itself. Briefly: SEC; fluorescence-detection size-exclusion chromatography (FSEC); crude membranes (2 mg/ml) solubilized in CYMAL-5 or DDM at a detergent:protein ratio of 3, 50 mM phosphate pH 7.5, 10 mM imidazole, 500 mM NaCl, 4°C; Superose 12 10/300 GL; GFP fluorescence of fractions.

B1: human Aquaporin-1 C-terminally tagged with yeast enhanced GFP and eight histidines (hAQP1-GFP-8His) (natural protein, UniProt P29972 1-269, looked up)
chain: MASEFKKKLFWRAVVAEFLATTLFVFISIGSALGFKYPVGNNQTAVQDNVKVSLAFGLSIATLAQSVGHISGAHLNPAVTLGLLLSCQISIFRALMYIIAQCVGAIVATAILSGITSSLTGNSLGRNDLADGVNSGQGLGIEIIGTLQLVLCVLATTDRRRRDLGGSAPLAIGLSVALGHLLAIDYTGCGINPARSFGSAVITHNFSNHWIFWVGPFIGGALAVLIYDFILAPRSSDLTDRVKVWTSGQVEEYDLDADDINSRVEMKPK
notes: human Aquaporin-1 (hAQP1), 269 amino acids; coding part of the cDNA without a translational stop codon, fused in frame to yeast enhanced GFP and eight histidines; not N-glycosylated in yeast; Order on the chain: hAQP1, yEGFP, 8 His; also called hAQP1-GFP-His8; Aquaporin-1-GFP; source: S. cerevisiae PAP1500 (plasmid pPAP8230), crude membranes solubilized in CYMAL-5 or DDM; also purified (CYMAL-5, …)
For B1, the “stoichiometry N” value was 4 and > 4.

By stoichiometry N is commonly meant a count of units in the complex or per binding partner.
